Source: patent publication US20230036060A1, “DUAL-CONTROLLED DRUG AND PHOTOACTIVATABLE SYSTEM FOR SPATIOTEMPORAL CONTROL OF CELL THERAPY” (THE REGENTS OF THE UNIVERSITY OF CALIFORNIA, priority 2019, published 2023)

Legend:
[1] = biological target: NLS-pMag-CreC; test: cell-based or functional assay
[2] = biological target: CIB1-CreC(106-343) (Arabidopsis thaliana) (UniProt Q8GY61); test: cell-based or functional assay

Chain of NLS-pMag-CreC (chain, as listed by the source): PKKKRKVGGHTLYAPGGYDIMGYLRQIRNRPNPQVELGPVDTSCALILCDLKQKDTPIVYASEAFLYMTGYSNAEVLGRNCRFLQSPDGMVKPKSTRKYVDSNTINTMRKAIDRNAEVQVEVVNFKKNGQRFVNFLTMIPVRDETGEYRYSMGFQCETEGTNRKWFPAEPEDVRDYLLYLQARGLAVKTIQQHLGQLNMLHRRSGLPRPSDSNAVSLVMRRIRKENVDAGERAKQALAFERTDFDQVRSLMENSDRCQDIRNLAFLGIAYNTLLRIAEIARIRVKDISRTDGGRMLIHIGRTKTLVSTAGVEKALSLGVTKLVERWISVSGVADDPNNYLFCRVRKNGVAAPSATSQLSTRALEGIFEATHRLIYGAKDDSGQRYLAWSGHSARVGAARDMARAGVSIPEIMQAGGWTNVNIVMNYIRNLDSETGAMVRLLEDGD
Chain of CreN(19-59)-nMag-NLS (P06956 19-59): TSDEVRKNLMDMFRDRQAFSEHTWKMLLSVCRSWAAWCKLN

Substance	fold increase in Cre-loxP recombination, PA-Cre-M, Light against Dark [1]	fold increase in recombined PA-Cre-M+ CAR Reporter Jurkat T cells, Light against Dark [1]	normalized % recombined (CAR-EGFP+) PA-Cre-M+ CAR Reporter Jurkat T cells, Dark [1]	normalized % recombined (CAR-EGFP+) PA-Cre-M+ CAR Reporter Jurkat T cells, Light, Protocol E [1]	normalized % recombined (EGFP+) EGFP Reporter HEK293T cells, PA-Cre-M, Light (30 W/m2, 30 s) [1]	normalized % recombined EGFP Reporter HEK293T cells, PA-Cre-M, Ambient light [1]	normalized % recombined EGFP Reporter HEK293T cells, PA-Cre-M, Ambient, Protocol B experiment [1]	normalized % recombined EGFP Reporter HEK293T cells, PA-Cre-M, Dark (pulsatile protocol experiment) [1]	normalized % recombined EGFP Reporter HEK293T cells, PA-Cre-M, Dark (spontaneous background) [1]	normalized % recombined EGFP Reporter HEK293T cells, PA-Cre-M, Dark, Protocol B experiment [1]	normalized % recombined EGFP Reporter HEK293T cells, PA-Cre-M, Light, Protocol B [1]	fold increase in Cre-loxP recombination, PA-Cre-C, Light against Dark [2]	normalized % recombined (EGFP+) EGFP Reporter HEK293T cells, PA-Cre-C, Light (30 W/m2, 30 s) [2]
CreN(19-59)-nMag-NLS (from UniProt P06956 19-59)	3.4 fold	4.1 fold	5.2%	21.2%	90.8%	28.9%	45.2%	20.4%	26.7%	32.9%	84.8%		
CRY2(L348F)-CreN(19-104) (from UniProt Q96524 1-612; P06956 19-104)												2.1 fold	12.1%
